Data on one molecule can be found in publication PMC10763564, “BrainBike peptidomimetic enables efficient transport of proteins across brain endothelium†” (RSC Chemical Biology, 2023).

Assay [1] addresses T1, TfR1 fused to a green fluorescent protein, on transfected HeLa cells (TfR1+++) (UniProt P02786 1-760).
T1 construct: Transferrin Receptor 1 (TfR1) encoded by a plasmid as a fusion with GFP; The transfected HeLa cells carry the endogenous TfR1 as well; also called GFP-TfR1; source: HeLa, transfected, on cells
Description: flow cytometry on cells; sCy5-labelled peptide on HeLa cells transfected with GFP-TfR1 (TfR1+++), cells with higher levels of the receptor analysed. The settings on record: one partner purified.

The target of assay [2] is T2, Transferrin Receptor 1 on HeLa cells (TfR1+) (human (endogenous in HeLa), UniProt P02786 1-760).
T2 construct: Transferrin Receptor 1 (TfR1), endogenous on HeLa cells; source: endogenous, on HeLa cells
Description: flow cytometry on cells; sCy5-labelled peptides on HeLa cells (TfR1+, endogenous receptor). The settings on record: one partner purified.

Starred links: 1 amine or outer side, 2 acyl side, 3 side chain; linkers in the order of their positions; H or OH if unused. Positions of bridges follow the written chain, without caps; N, C: chain ends. No end group written: not given here. TBMB = c1c(C[*:1])cc(C[*:3])cc1C[*:2]

T2 sequence (P02786 whole entry): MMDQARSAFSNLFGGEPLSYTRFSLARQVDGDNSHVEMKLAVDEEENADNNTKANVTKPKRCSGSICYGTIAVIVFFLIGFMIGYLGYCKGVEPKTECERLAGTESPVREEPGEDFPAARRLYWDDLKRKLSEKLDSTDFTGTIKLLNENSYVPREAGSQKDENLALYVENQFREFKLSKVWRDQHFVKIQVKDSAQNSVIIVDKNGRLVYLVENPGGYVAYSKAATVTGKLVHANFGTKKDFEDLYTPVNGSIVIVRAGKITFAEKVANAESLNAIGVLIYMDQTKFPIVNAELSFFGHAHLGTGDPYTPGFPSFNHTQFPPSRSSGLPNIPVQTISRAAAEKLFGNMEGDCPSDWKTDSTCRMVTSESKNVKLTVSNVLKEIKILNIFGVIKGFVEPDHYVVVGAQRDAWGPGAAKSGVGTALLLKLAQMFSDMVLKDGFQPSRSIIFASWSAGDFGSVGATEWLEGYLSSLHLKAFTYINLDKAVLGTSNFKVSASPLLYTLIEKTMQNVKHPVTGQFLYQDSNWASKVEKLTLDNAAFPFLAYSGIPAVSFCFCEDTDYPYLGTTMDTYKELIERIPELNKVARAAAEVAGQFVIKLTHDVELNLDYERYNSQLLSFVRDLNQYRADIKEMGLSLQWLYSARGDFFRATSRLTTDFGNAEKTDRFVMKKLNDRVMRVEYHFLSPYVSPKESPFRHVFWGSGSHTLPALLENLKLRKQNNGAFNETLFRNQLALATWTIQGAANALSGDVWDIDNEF
T1 sequence (P02786 whole entry, the tested form may be a part): as the sequence (P02786 whole entry) above

B1: BrainBike-4 labelled with sulfo-Cyanine5 (peptide)
chain: {sulfo‑Cyanine5}-GSGCVHWDCRQWC
modifications: linker 4-9-13 via TBMB
B1: the “fold binding against the same cells without overexpressing the receptor” value in assay [1] was approximately 40 fold. For the same molecule, in assay [2], the Kd was approximately 40 nM and the “fold cell association against the parent peptide Y1” value came out at 7 fold.
